Measured values taken from US20260258115A1 (MAPP BIOPHARMACEUTICAL, published 2026).

What was measured:
[1] = biological target: RSV prefusion F (preF), DS-Cav1 (Respiratory Syncytial Virus, UniProt P03420 26-513); experiment: BLI, IgG on anti-human IgG sensor, 100 nM antigen, 1:1 fit
[2] = biological target: RSV postfusion F (postF), F ΔFP (Respiratory Syncytial Virus, UniProt P03420 26-513); experiment: as above
RSV F on RSV-A2 virus = RSV F on RSV-A2 virus (Respiratory Syncytial Virus (RSV-A2), UniProt P03420 26-574); experiment: cell-based or functional assay

Binder	Kd [1] [nM]	Kd [2] [nM]	Neutralization IC50 (RSV subtype A) (RSV F on RSV-A2 virus) [µg/mL]
ADI-41508 (antibody, V domains shown, also called Ab 786; Antibody Number 786) VH: QVQLVQSGAEVRKPGASVKVSCKASGYGFRSYDLTWVRQAPGKGLEWVGWISAYSGGTNYAQTLQGRVTMTTDTSTSTAYMELRSLGPDDTAVYYCARAGLYGSGSPDGFDSWGQGTLVTVSS VL: SYELTQPPSVSVSPGQTASITCSGDKLGDKYASWYQQRPGQSPVLVISQDTKRPSGIPERFSGSTSGNTAILTISGTQAMDEADYYCLAWDSSTAWVFGGGTKLTVL	4.15	0.555	0.1
ADI-41526 (antibody, V domains shown) VH: QVQLVQSGAEVKKPGASVKVSCEASGYTFTDYYMHWVRQAPGQGLEWMGWINPNSGVTKIAQNFQGRVTMTRDTSITTAYMDLSRLRSDDTAVYYCARVVDGDYDNWFDFWGQGTLVTVSS VL: SYVLTQPPSASGTPGQRVTISCSGSTSNIGTNTVNWYQQPPGMAPKLLIYANNQRPSGVPDRFSGSKSGTSASLAISGLQSEDEADYHCAVWDDSLPGWVFGGGTKLTVL	0.301	0.336	> 25
ADI-41527 (antibody, V domains shown, also called Ab 799; Antibody Number 799) VH: EVQLLESGGGLVQPGGSLRLSCAASGFTFTSYWMSWVRQAPGQGLEWVATIKQDGSEKYYVDSVKGRFTISRDNAKNSLYLQMNSLGAEDTAVYYCARDMYCSTTTCYFFETYYYNGMDVWGQGTTVTVSS VL: DIRLTQSPSSVSASVGDRVTITCRASQVTSTWLAWYQQNPGKAPKLLIYAASRLQSGVPSRFSGSGSGTEFTLTISSLQPEDFATYYCQQANSFPLTFGGGTKVEIK	0.712	0.337	> 25
ADI-41528 (antibody, V domains shown, also called Ab 800; Antibody Number 800) VH: EVQLVESGGGVVQPGRSLRLSCAASGFTFSSYAMHWVRQAPGKGLEWVAVISFDGSSDYYADSVKGRFTISRDSSKNTLYLRMNSLRAEDTAVYYCARRAVEYSIYNNDAFDVWGQGTTVTVSS VL: SYELTQPPSVSVSPGQTASITCSGDKLGNKFTFWYQQKSGQSPVLVIYQETKRPSGIPERFSGSNSGNTATLTISGTQSMDEADYYCQAWDSSTAFFGGGTKLTVL	2.28	0.348	> 25
ADI-41529 (antibody, V domains shown) VH: EVQLVQSGAEVRRPGSSVKVSCKASGGTLDTDSISWVRQVPGQGLVWVGGVIPILGSVVYARKFQGRVTITADGSTSTAYMELRSLRSEDTAMYYCASQFYDFRRGYFDAFDIWGQGTTVTVSS VL: ETTLTQSPGILSLSPGERATLSCRATQTVISNYINWYQQKPGQAPRLLIYGASSRATGIPDRFSGSGSGTDFTLTISRLEPEDFAVYYCQRYDSSPPGFTFGPGTKVDIK	1.03	0.351	> 25
ADI-41530 (antibody, V domains shown, also called Ab 802; Antibody Number 802) VH: QVQLVESGAEVKKPGASVKVSCRASGYTFSAYDINWVRQAPGQGLEWVGWMNPNSGNTGYALRFQGRVTMTRDTSINTAYMELSSLRSDDTAVYYCAAQLWYPNWGQGTLVTVSS VL: SYELTQPPSVSVGLGQTASITCGGNNIGSKSVHWYQQKPGQAPTLVIYRDTNRPSGIPERFSGSNSENTATLTISRAQAGDEADFYCQVSDNYSWVFGGGTKLTVL	1.91	0.355	> 25
ADI-41531 (antibody, V domains shown, also called Ab 803; Antibody Number 803) VH: EVQLLESGGDLVQPGGSLRLSCAASGFTFFSYALNWVRRTPGKGLEWVSGISGSGGSTYYADSVKGRFTISRDNSKSTLYLQMNSLKVDDTAVYFCAKDFQHDYGDPYRSYYFDHWGQGTLVTVSS VL: DIQLTQSPSSLAASVGDRVTITCQASRDIRKSLNWYQVKPGKAPKLLISDASYLETGVPPRFSGSGFGTHFTFTISSLQPEDIATYYCQQYDNLPPPTFGGGTKVDIK	2.08	0.377	> 25
ADI-41532 (antibody, V domains shown) VH: QVQLVQSGAEVKKPGESLKISCKGSGYSFTSSWIGWVRQMPGKGLEWMGIIYPGDSDTRYSPSIQGRVTISADKSITTAYLQWSSLKASDTATYYCAKFGGYADAYFYHGMDVWGQGTTVTVSS VL: not shown	1.92	0.392	> 25
ADI-41533 (antibody, V domains shown) VH: QVQLVESGGGVVQPGRSLRLSCAASGFTFSSYAMHWVRQAPGKGLEWLAVISFDGSSEFYGDSVRGRFTISRDNSKNTLYLRVNSLRAEDTALYYCARRSLKYSMYNNDAFDVWGQGTTVTVSS VL: QPVLTQPPSVSVSPGQTASITCSGDKLGNKFTFWYQQKSGQSPVLVIYQESQRPSGIPERFSGSNSGNTATLTIRGAQAMDEADYYCQAWDSSTAFFGGGTKLTVL	1.47	0.423	> 25
ADI-41534 (antibody, V domains shown, also called Ab 806; Antibody Number 806) VH: QVQLVQSGGGVVQPGRSLRLSCAASGFTFSNYAMHWVRQAPGKGLEWVTLISYDGSAQDYADSVKGRITISRDNSKNTLYLQMSSLRPEDTAVYYCARYYCTNDVCSSSALDIWGQGTTVTVSS VL: SYELIQPPSVSVSPGQTASITCSGDKLGNKFTCWYQQKPGQSPVLVIYQDSKRPSGIPERFSGSNSGNTATLTISGTQAMDEADYYCQAWDSSTVVFGGRTKLTVL	3.31	0.472	> 25
ADI-41535 (antibody, V domains shown) VH: QVTLKESGPALVKPTQTLTLTCTFSGFSLSTSRMCVSWIRQSPGKALEWLARIDWDDDKFFSTSLKTRLTISKDTSRNQVVLTMTNMDPVDTATYYCARTTVYASGGYYLYYFDYWGQGTLVTVSS VL: DIQLTQSPSSLPASVGDRVTITCRASQRIASYLNWYQQKPGKAPKVLIYAASNLQSGVPSRFSGSGSGTDFTLTINSLQPEDFATYYCQQSYTTPWTFGQGTKVEIK	1.93	0.476	> 25
ADI-41536 (antibody, V domains shown, also called Ab 808; Antibody Number 808) VH: EVQLVESGAGLLKPSETLSLTCVVYGGSFSGYYWSWIRQPPGKGLEWVGDINHSTTTNYNPSLESRITISIDTSKNQFSLNLSSVTAADSAVYYCARGPKECTSSSCDRFGVDYFYYGMDVWGRGTTVTVSS VL: QSVLTQPPSVSGAPGQRVTISCTGSSANIGAGYDVHWYQQFPGTAPKLLIFGNSNRPSGVPDRFSGSKSGTSASLAITGLQAEDEADYYCQSYDGTLGGWVFGGGTQLTVL	3.05	0.476	> 25
ADI-41537 (antibody, V domains shown) VH: EVQLLESGGGLVQPGGSLRLSCAASEFTFSRYPMSWVRQAPGKGLEWVSGISVSGDSTYYADSVKGRLTISRDNSKNTLYLQMNSLRAEDTAVYYCAIDHYDTSGYYGMDVWGQGTTVTVSS VL: DIRLTQSPLSLPVTPGEPASISCRSSRSLLRSNGYNYLDWYLQKPGQSPQLLIYLGSNRASGVPDRFSGSGSGTDFTLKISRVEAEDVGVYYCMQALQSSYTFGQGTKLEIK	2.58	0.488	> 25
ADI-41538 (antibody, V domains shown, also called Ab 810; Antibody Number 810) VH: EVQLVESGGGLVKPGGSLRLSCAASGFTLSTYGVNWVRQAPGKGLEWVSSISSSGNNIHYADSVKGRFTVFRDNAKHSMYLQMNSLRAEDTAVYYCARSLDYSNYYYYYGLDVWGQGTTVTVSS VL: not shown	3.44	0.587	> 25
ADI-41539 (antibody, V domains shown) VH: QVQLVESGAEVKKPGASVKVSCKASGYNFIDYGISWVRQAPGQGLEWVGWISAYNGNTNYAQKLQGRVTMTTDTSTNTAYMELRSLRSDDTALYYCARDSSSLHPTYYYYYPMDVWGQGTTVTVSS VL: not shown	3.38	0.615	0.18
ADI-41540 (antibody, V domains shown) VH: QVQLQQWGAGLLKPSETLSLTCGVYGGSFTGYQWSWIRQSPGKGLEWIGDIDHGGNTNYRPSLKSRIITSVNMSKKEFSLKLASVTAADTAVYYCARGVGFLEFSGGPTGRRRNWFDSWGQGTLVTVSS VL: DIQLTQSPGTLSLSPGEGATLSCRASQSVGGSYLAWYQQRPGQAPRLLIYGASNRAADSPDRFSGSGSATDFTLTISRLEPEDFAVYYCQQYGSSPWTFGQGTKVEIK	3.54	0.686	> 25
ADI-41541 (antibody, V domains shown, also called Ab 813; Antibody Number 813) VH: QITLKESGPTLVKPTQTLTLTCTFSGFSLSSSGVGVGWIRQPPGKALEWLALIYWDDDKRYSPSLKSRLTITKDTSKNQVVLTMTNMDPVDTATYYCAHRGPYYYDMSGYYYEAFDIWGQGTTVTVSS VL: SYELMQPPSVSVAPGQTARITCGGNNIGSKGVHWYQQKPGQAPVLVVYDDNDRPSGIPERFSGSNSGNTATLTISRVEAGDEADYYCQVWDSSSDHHYVFGTGTKVTVL	2.47	0.776	> 25
ADI-41543 (antibody, V domains shown) VH: QVQLVQSGAEVKKPGASVRVSCKASGYTLTGYYIHWLRQAPGQGLEWVGRINPNTGETSYSQKFQGRVIMTRDTSVSTAYVDLSRLRSRDTAVYFCARSDVMITVTAEGDFSYYYYRFDVWGQGTTVTVSS VL: DIVMTQTPLSLPVTPGEPASISCRSSQSLLHSNGHNYLDWYLQKPGQSPQLLIYLGSIRASGVSDRFSGSGSGTDFTLKISRVEAEDVGIYYCMQALQTPHFGGGTKVEIK	2.9	0.796	> 25
ADI-41545 (antibody, V domains shown, also called Ab 817; Antibody Number 817) VH: QVQLVESGPGLVKPSETLSLTCTVSGGSISRYYWSWIRQSPGKGLEWIGYIYHSVITNYNPSLKSRVTISIDMSKNQFSLKLSSVTAADTAVYYCASRPLINGYGPDNYFDYWGQGTLVTVSS VL: SYVLTQPPSVSVAPGQTARITCGGNNIGSKSVHWYQRKPGQAPVLVVYDDSDRPSGIPERFSGSNSGNTATLTIIRVEAGDEADYYCQVWDNSSDHPVFGGGTKLTVL	1.36	0.825	> 25
